Laboratory results reported in patent US20120034160A1 (AbbVie / Abbott, published 2012).
Substitutions are numbered along the chain they refer to.

T1: Recombinant Human IL-17 (human, UniProt Q16552 20-155, limits assumed)
T1 construct: bought reagent
T1 sequence (looked up): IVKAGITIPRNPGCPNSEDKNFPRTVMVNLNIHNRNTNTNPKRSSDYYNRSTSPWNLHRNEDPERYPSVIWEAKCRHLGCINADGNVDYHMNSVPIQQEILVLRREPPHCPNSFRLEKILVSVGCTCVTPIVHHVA

B1: DVD1626 (bispecific antibody, human IgG1, kappa)
heavy: not shown
light: DIQMTQSPSSLSASVGDRVTITCRASSGIISYIDWFQQKPGKAPKRLIYATFDLASGVPSRFSGSGSGTDYTLTISSLQPEDFATYYCRQVGSYPETFGQGTKLEIKRTVAAPDTVVTQSPAFLSVTPGEKVTITCITSTDIDVDMNWYQQKPDQPPKLLISQGNTLRPGVPSRFSSSGSGTDFTFTISSLEAEDAATYYCLQSDNLPLTFGQGTKLEIKRTVAAPSVFIFPPSDEQLKSGTASVVCLLNNFYPREAKVQWKVDNALQSGNSQESVTEQDSKDSTYSLSSTLTLSKADYEKHKVYACEVTHQGLSSPVTKSFNRGEC
notes: DVD-Ig, outer AB273, inner AB271, linker set 3; V1 wt hIgG1, V2 kappa; also called DVD1626H; DVD1626L
B2: DVD1610 (bispecific antibody, human IgG1, kappa)
heavy: not shown
light: EIVLTQSPDFQSVTPKEKVTITCRASQNIGSELHWYQQKPDQSPKLLIKYASHSISGVPSRFSGSGSGTDFTLTINGLEAEDAATYYCHQSDTLPHTFGQGTKVDIKRTVAAPSVFIFPPDIQMTQSPSSLSASVGDRVTITCRASGNIHNYLTWYQQTPGKAPKLLIYNAKTLADGVPSRFSGSGSGTDYTFTISSLQPEDIATYYCQHFWSIPYTFGQGTKLQITRTVAAPSVFIFPPSDEQLKSGTASVVCLLNNFYPREAKVQWKVDNALQSGNSQESVTEQDSKDSTYSLSSTLTLSKADYEKHKVYACEVTHQGLSSPVTKSFNRGEC
notes: V1 wt hIgG1, V2 kappa; also called DVD1610H; DVD1610L
B3: DVD1612 (bispecific antibody, human IgG1, kappa)
heavy: not shown
light: B2 light
notes: V1 wt hIgG1, V2 kappa; also called DVD1612H; DVD1612L
B4: DVD1624 (bispecific antibody, human IgG1, kappa)
heavy: not shown
light: DIQMTQSPSSLSASVGDRVTITCRASSGIISYIDWFQQKPGKAPKRLIYATFDLASGVPSRFSGSGSGTDYTLTISSLQPEDFATYYCRQVGSYPETFGQGTKLEIKRTVAAPDTQVTQSPSSLSASVGDRVTITCITSTDIDVDMNWYQQKPGKPPKLLISQGNTLRPGVPSRFSSSGSGTDFTFTISSLQPEDFATYYCLQSDNLPLTFGQGTKLEIKRTVAAPSVFIFPPSDEQLKSGTASVVCLLNNFYPREAKVQWKVDNALQSGNSQESVTEQDSKDSTYSLSSTLTLSKADYEKHKVYACEVTHQGLSSPVTKSFNRGEC
notes: DVD-Ig, outer AB273, inner AB270, linker set 3; V1 wt hIgG1, V2 kappa; also called DVD1624H; DVD1624L
B5: DVD1628 (bispecific antibody, human IgG1, kappa)
heavy: not shown
light: B4 light with D114E, Q116T
notes: DVD-Ig, outer AB273, inner AB272, linker set 3; V1 wt hIgG1, V2 kappa; also called DVD1628H; DVD1628L
B6: DVD1608 (bispecific antibody, human IgG1, kappa)
heavy: not shown
light: EIVLTQSPDFQSVTPKEKVTITCRASQDIGSELHWYQQKPDQPPKLLIKYASHSTSGVPSRFSGSGSGTDFTLTINGLEAEDAGTYYCHQTDSLPYTFGPGTKVDIKRTVAAPSVFIFPPETTVTQSPSSLSASVGDRVTITCITSTDIDVDMNWYQQKPGKPPKLLISQGNTLRPGVPSRFSSSGSGTDFTFTISSLQPEDFATYYCLQSDNLPLTFGQGTKLEIKRTVAAPSVFIFPPSDEQLKSGTASVVCLLNNFYPREAKVQWKVDNALQSGNSQESVTEQDSKDSTYSLSSTLTLSKADYEKHKVYACEVTHQGLSSPVTKSFNRGEC
notes: DVD-Ig, outer AB274, inner AB272, linker set 2; V1 wt hIgG1, V2 kappa; also called DVD1608H; DVD1608L
B7: DVD1614 (bispecific antibody, human IgG1, kappa)
heavy: not shown
light: B6 light with D28N, P43S, T55I, G84A, T91S, S93T, Y96H, P100Q, E121D, T123Q
notes: DVD-Ig, outer AB275, inner AB270, linker set 2; V1 wt hIgG1, V2 kappa; also called DVD1614H; DVD1614L
B8: DVD1618 (bispecific antibody, human IgG1, kappa)
heavy: not shown
light: B6 light with D28N, P43S, T55I, G84A, T91S, S93T, Y96H, P100Q
notes: DVD-Ig, outer AB275, inner AB272, linker set 2; V1 wt hIgG1, V2 kappa; also called DVD1618H; DVD1618L
B9: DVD1606 (bispecific antibody, human IgG1, kappa)
heavy: not shown
light: EIVLTQSPDFQSVTPKEKVTITCRASQDIGSELHWYQQKPDQPPKLLIKYASHSTSGVPSRFSGSGSGTDFTLTINGLEAEDAGTYYCHQTDSLPYTFGPGTKVDIKRTVAAPSVFIFPPDTVVTQSPAFLSVTPGEKVTITCITSTDIDVDMNWYQQKPDQPPKLLISQGNTLRPGVPSRFSSSGSGTDFTFTISSLEAEDAATYYCLQSDNLPLTFGQGTKLEIKRTVAAPSVFIFPPSDEQLKSGTASVVCLLNNFYPREAKVQWKVDNALQSGNSQESVTEQDSKDSTYSLSSTLTLSKADYEKHKVYACEVTHQGLSSPVTKSFNRGEC
notes: DVD-Ig, outer AB274, inner AB271, linker set 2; V1 wt hIgG1, V2 kappa; also called DVD1606H; DVD1606L
B10: DVD1616 (bispecific antibody, human IgG1, kappa)
heavy: not shown
light: B9 light with D28N, P43S, T55I, G84A, T91S, S93T, Y96H, P100Q
notes: DVD-Ig, outer AB275, inner AB271, linker set 2; V1 wt hIgG1, V2 kappa; also called DVD1616H; DVD1616L
B11: DVD1620 (bispecific antibody, human IgG1, kappa)
heavy: not shown
light: DIQMTQSPSSLSASVGDRVTITCRASSGIISYIDWFQQKPGKAPKRLIYATFDLASGVPSRFSGSGSGTDYTLTISSLQPEDFATYYCRQVGSYPETFGQGTKLEIKRTVAAPDIQMTQSPSSLSASVGDRVTITCRASGNIHNYLTWYQQTPGKAPKLLIYNAKTLADGVPSRFSGSGSGTDYTFTISSLQPEDIATYYCQHFWSIPYTFGQGTKLQITRTVAAPSVFIFPPSDEQLKSGTASVVCLLNNFYPREAKVQWKVDNALQSGNSQESVTEQDSKDSTYSLSSTLTLSKADYEKHKVYACEVTHQGLSSPVTKSFNRGEC
notes: V1 wt hIgG1, V2 kappa; also called DVD1620H; DVD1620L
B12: DVD1622 (bispecific antibody, human IgG1, kappa)
heavy: not shown
light: B11 light
notes: V1 wt hIgG1, V2 kappa; also called DVD1622H; DVD1622L

Tests used:
[1] = biological target: T1, Recombinant Human IL-17; assay: Biacore SPR; N-terminal VD
Method: (§1) The BIACORE assay (Biacore, Inc, Piscataway, N.J.) determines the affinity of antibodies or DVD-Ig with kinetic measurements of on-rate and off-rate constants. Binding of antibodies or DVD-Ig to a target antigen (for example, a purified recombinant target antigen) was determined by surface plasmon resonance-based measurements with a Biacore® 1000 or 3000 instrument (Biacore® AB, Uppsala, Sweden) using running HBS-EP (10 mM HEPES [pH 7.4], 150 mM NaCl, 3 mM EDTA, and 0.005% surfactant P20) at 25° C. All chemicals were obtained from Biacore® AB (Uppsala, Sweden) or otherwise from a different source as described in the text. For example, approximately 5000 RU of goat anti-mouse IgG, (Fcγ), fragment specific polyclonal antibody (Pierce Biotechnology Inc, Rockford, Ill.) diluted in 10 mM sodium acetate (pH 4.5) was directly immobilized across a CM5 research grade biosensor chip using a standard amine coupling kit according to manufacturer's instructions and procedures at 25 μg/ml. Unreacted moieties on the biosensor surface were blocked with ethanolamine. Modified carboxymethyl dextran surface in flowcell 2 and 4 was used as a reaction surface. Unmodified carboxymethyl dextran without goat anti-mouse IgG in flow cell 1 and 3 was used as the reference surface. For kinetic analysis, rate equations derived from the 1:1 Langmuir binding model were fitted simultaneously to association and dissociation phases of all eight injections (using global fit analysis) with the use of Biaevaluation 4.0.1 software. Purified antibodies or DVD-Ig were diluted in HEPES-buffered saline for capture across goat anti-mouse IgG specific reaction surfaces. Antibodies or DVD-Ig to be captured as a ligand (25 μg/ml) were injected over reaction matrices at a flow rate of 5 μl/min. The association and dissociation rate constants, kₒₙ (M⁻¹s⁻¹) and koff (s⁻¹) were determined under a continuous flow rate of 25 μl/min. Rate constants were derived by making kinetic binding measurements at different antigen concentrations ranging from 10−200 nM. The equilibrium dissociation constant (M) of the reaction between antibodies or DVD-Igs and the target antigen was then calculated from the kinetic rate constants by the following formula: KD=koff/kₒₙ. Binding was recorded as a function of time and kinetic rate constants are calculated.

[2] = biological target: T2, Recombinant Human IL-1β (human, UniProt P01584 117-269); assay: Biacore SPR; C-terminal VD
T2 construct: bought reagent; also called IL-1B
Method: as §1

Row | Binder | Kd [1] | koff [1] | kon [1] | Kd [2] | koff [2] | kon [2]
1 | B1 | 0.0034 nM | 1.6e-05 s⁻¹ | 4.8e+06 M⁻¹ s⁻¹ | 1 nM | 0.00047 s⁻¹ | 470000 M⁻¹ s⁻¹
2 | B2 | 0.017 nM | 5.7e-05 s⁻¹ | 3.5e+06 M⁻¹ s⁻¹ | 0.25 nM | 7.3e-05 s⁻¹ | 290000 M⁻¹ s⁻¹
3 | B3 | 0.016 nM | 5.1e-05 s⁻¹ | 3.2e+06 M⁻¹ s⁻¹ | 0.15 nM | 2.5e-05 s⁻¹ | 160000 M⁻¹ s⁻¹
4 | B4 | 0.011 nM | 4.1e-05 s⁻¹ | 3.7e+06 M⁻¹ s⁻¹ | 0.84 nM | 0.00046 s⁻¹ | 550000 M⁻¹ s⁻¹
5 | B5 | 0.0055 nM | 2.2e-05 s⁻¹ | 4e+06 M⁻¹ s⁻¹ | 1 nM | 0.00049 s⁻¹ | 490000 M⁻¹ s⁻¹
6 | B6 | 0.0026 nM | 1.2e-05 s⁻¹ | 4.8e+06 M⁻¹ s⁻¹ | 0.37 nM | 0.00056 s⁻¹ | 1.5e+06 M⁻¹ s⁻¹
7 | B7 | 0.014 nM | 4.8e-05 s⁻¹ | 3.5e+06 M⁻¹ s⁻¹ | 0.18 nM | 0.0003 s⁻¹ | 1.7e+06 M⁻¹ s⁻¹
8 | B8 | 0.019 nM | 6.3e-05 s⁻¹ | 3.2e+06 M⁻¹ s⁻¹ | 0.26 nM | 0.00062 s⁻¹ | 2.4e+06 M⁻¹ s⁻¹
9 | B9 | 0.00067 nM | 3e-06 s⁻¹ | 4.4e+06 M⁻¹ s⁻¹ | 0.32 nM | 0.00044 s⁻¹ | 1.4e+06 M⁻¹ s⁻¹
10 | B10 | 0.015 nM | 4.9e-05 s⁻¹ | 3.3e+06 M⁻¹ s⁻¹ | 0.22 nM | 0.00036 s⁻¹ | 1.6e+06 M⁻¹ s⁻¹
11 | B11 | 0.0019 nM | 7.1e-06 s⁻¹ | 3.8e+06 M⁻¹ s⁻¹ | 0.29 nM | 9.4e-05 s⁻¹ | 330000 M⁻¹ s⁻¹
12 | B12 | 0.00046 nM | 1.7e-06 s⁻¹ | 3.7e+06 M⁻¹ s⁻¹ | 0.16 nM | 0.00023 s⁻¹ | 1.5e+06 M⁻¹ s⁻¹
